B1: VH4 C102A/VK2 (antibody, IgG1, V domains shown)
VH: QVQLVQSGAEVKKPGSSVKVSCKASGYTFTSYWIHWVRQAPGQGLEWIGLIDPSDSYTNYNQKFRGRVTITVDTSTSTAYMELSSLRSEDTAVYYCASSDPTGAWGQGTTVTVSS
VL: DIVMTQAAFSNPVTPGTPASISCRSSKSLLHSSGITYLSWYLQKPGQSPQLLIYQMSNLASGVPDRFSSSGSGTDFTLKISRVEAEDVGVYYCAQNLELPLTFGQGTKLEIK
notes: IgG1, tested from HEK supernatant
B2: VH5 C102V/VK2 (antibody, IgG1, V domains shown)
VH: B1 VH with V72R, A104V
VL: B1 VL
notes: IgG1, tested from HEK supernatant; also called VH5-102V
B3: VH4 C102S/VK2 (antibody, IgG1, V domains shown)
VH: B1 VH with A104S
VL: B1 VL
notes: as for B1
B4: VH4 C102G/VK2 (antibody, IgG1, V domains shown)
VH: B1 VH with A104G
VL: B1 VL
notes: IgG1, tested from HEK supernatant; also called VH4-102G
B5: humanized anti-fibrin antibody variant VH5 C102G/VK2 (antibody, IgG1, V domains shown)
VH: B1 VH with V72R, A104G
VL: B1 VL
notes: IgG1, tested from HEK supernatant in the SPR assay; also called VH5 C102G/Vκ2; VH5-102G
B6: VH5 C102L/VK2 (antibody, IgG1, V domains shown)
VH: B1 VH with V72R, A104L
VL: B1 VL
notes: IgG1, tested from HEK supernatant; also called VH5-102L
B7: VH4 C102T/VK2 (antibody, IgG1, V domains shown)
VH: B1 VH with A104T
VL: B1 VL
notes: as for B1
B8: VH5 C102S/VK2 (antibody, IgG1, V domains shown)
VH: B1 VH with V72R, A104S
VL: B1 VL
notes: as for B1
B9: VH4 C102L/VK2 (antibody, IgG1, V domains shown)
VH: B1 VH with A104L
VL: B1 VL
notes: IgG1, tested from HEK supernatant; also called VH4-102L
B10: VH4 C102V/VK2 (antibody, IgG1, V domains shown)
VH: B1 VH with A104V
VL: B1 VL
notes: IgG1, tested from HEK supernatant; also called VH4-102V
B11: VH5 C102A/VK2 (antibody, IgG1, V domains shown)
VH: B1 VH with V72R
VL: B1 VL
notes: as for B1
B12: VH1/VK3 (antibody, V domains shown)
VH: B1 VH with V11L, S16T, V20L, R38K, V68A, I70L, E82Q, R87T, T91S, A104C
VL: B1 VL with A7S, A8P, F9L, N11L, T17E
B13: VH1/VK4 (antibody, V domains shown)
VH: B1 VH with V11L, S16T, V20L, R38K, V68A, I70L, E82Q, R87T, T91S, A104C
VL: B1 VL with A7S, A8P, F9L, N11L, T17E, S69G
B14: VH1/VK2 (antibody, V domains shown)
VH: B1 VH with V11L, S16T, V20L, R38K, V68A, I70L, E82Q, R87T, T91S, A104C
VL: B1 VL
B15: VH4/VK3 (antibody, V domains shown)
VH: B1 VH with A104C
VL: B1 VL with A7S, A8P, F9L, N11L, T17E
B16: VH1/VK1 (antibody, V domains shown)
VH: B1 VH with V11L, S16T, V20L, R38K, V68A, I70L, E82Q, R87T, T91S, A104C
VL: B1 VL with V13I, K79R
B17: VH5/VK4 (antibody, IgG1, V domains shown)
VH: B1 VH with V72R, A104C
VL: B1 VL with A7S, A8P, F9L, N11L, T17E, S69G
notes: Expressed as IgG1
B18: VH4/VK4 (antibody, IgG1, V domains shown)
VH: B1 VH with A104C
VL: B1 VL with A7S, A8P, F9L, N11L, T17E, S69G
notes: Expressed as IgG1
B19: VH5/VK3 (antibody, IgG1, V domains shown)
VH: B1 VH with V72R, A104C
VL: B1 VL with A7S, A8P, F9L, N11L, T17E
notes: Expressed as IgG1
B20: VH6/VK1 (antibody, IgG1, V domains shown)
VH: B1 VH with R65Q, V72R, A104C
VL: B1 VL with V13I, K79R
notes: Expressed as IgG1
B21: VH5/VK1 (antibody, IgG1, V domains shown)
VH: B1 VH with V72R, A104C
VL: B1 VL with V13I, K79R
notes: Expressed as IgG1
B22: VH6/VK3 (antibody, IgG1, V domains shown)
VH: B1 VH with R65Q, V72R, A104C
VL: B1 VL with A7S, A8P, F9L, N11L, T17E
notes: Expressed as IgG1

Numbering of substitutions follows the chain as printed. In names and notes the source's numbering stands.

plasminogen-depleted human Fibrinogen (EMD/Calbiochem) (human), sequence (P02671 20-629 limits assumed, chain 1 of 3): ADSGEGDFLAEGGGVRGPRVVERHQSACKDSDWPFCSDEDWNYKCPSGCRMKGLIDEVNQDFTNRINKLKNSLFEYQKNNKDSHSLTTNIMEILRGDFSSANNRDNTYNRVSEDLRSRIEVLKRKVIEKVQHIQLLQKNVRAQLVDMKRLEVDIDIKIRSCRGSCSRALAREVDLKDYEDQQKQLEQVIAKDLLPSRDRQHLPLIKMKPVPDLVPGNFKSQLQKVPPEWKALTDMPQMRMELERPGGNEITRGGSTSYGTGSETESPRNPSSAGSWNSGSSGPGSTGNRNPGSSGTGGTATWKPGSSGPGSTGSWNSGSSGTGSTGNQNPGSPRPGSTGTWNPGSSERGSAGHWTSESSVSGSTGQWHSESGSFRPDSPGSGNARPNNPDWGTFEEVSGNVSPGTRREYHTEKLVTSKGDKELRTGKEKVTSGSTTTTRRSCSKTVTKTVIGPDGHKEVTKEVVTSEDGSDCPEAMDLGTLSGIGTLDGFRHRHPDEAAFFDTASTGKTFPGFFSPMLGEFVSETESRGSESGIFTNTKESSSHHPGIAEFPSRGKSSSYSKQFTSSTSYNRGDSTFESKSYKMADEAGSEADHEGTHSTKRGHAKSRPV
plasminogen-depleted human Fibrinogen (EMD/Calbiochem) (human), sequence (P02675 31-491 limits assumed, chain 2 of 3, further chain): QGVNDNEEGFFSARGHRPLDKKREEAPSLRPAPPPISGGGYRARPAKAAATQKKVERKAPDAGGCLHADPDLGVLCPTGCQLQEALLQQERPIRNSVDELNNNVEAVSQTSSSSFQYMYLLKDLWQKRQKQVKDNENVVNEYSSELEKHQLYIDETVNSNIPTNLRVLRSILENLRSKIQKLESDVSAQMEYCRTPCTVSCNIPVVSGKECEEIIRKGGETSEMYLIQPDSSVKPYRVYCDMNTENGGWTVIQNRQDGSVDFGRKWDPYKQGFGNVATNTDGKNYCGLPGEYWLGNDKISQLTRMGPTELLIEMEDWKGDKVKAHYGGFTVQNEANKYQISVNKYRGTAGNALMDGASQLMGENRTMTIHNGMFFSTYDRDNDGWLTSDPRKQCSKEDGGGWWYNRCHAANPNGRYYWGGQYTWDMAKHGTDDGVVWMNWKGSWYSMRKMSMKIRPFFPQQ
plasminogen-depleted human Fibrinogen (EMD/Calbiochem) (human), sequence (P02679 other isoform, or with tags, fused parts or gaps limits assumed, chain 3 of 3, further chain): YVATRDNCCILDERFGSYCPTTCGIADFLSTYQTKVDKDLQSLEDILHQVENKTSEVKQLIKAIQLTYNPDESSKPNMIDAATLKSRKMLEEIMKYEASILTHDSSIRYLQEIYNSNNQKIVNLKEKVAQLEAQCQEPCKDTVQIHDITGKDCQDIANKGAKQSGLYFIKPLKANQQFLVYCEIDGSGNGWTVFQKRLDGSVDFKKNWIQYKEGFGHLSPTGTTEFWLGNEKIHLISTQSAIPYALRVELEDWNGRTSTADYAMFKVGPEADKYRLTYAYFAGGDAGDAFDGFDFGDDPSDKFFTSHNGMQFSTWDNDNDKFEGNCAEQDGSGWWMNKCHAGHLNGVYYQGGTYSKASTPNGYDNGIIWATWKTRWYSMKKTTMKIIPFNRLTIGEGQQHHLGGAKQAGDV

One test has as its target plasminogen-depleted human Fibrinogen (EMD/Calbiochem) (human) (UniProt P02671). Put plainly: ELISA on plate-coated human fibrinogen, antibody titrated, A450. In general terms: In an ELISA, binding on a coated surface is turned into a signal by an enzyme label.
mouse IgG2b isotype control (antibody): the EC50 was 1.84 µM.

For a further test, the target named is T1, P2 peptide comprising SEQ ID NO: 31 (human fibrin γ377-395) (human).
T1 construct: Bought (CPC Scientific 920712); also called human P2 peptide
T1 peptide: YSMKKTTMKIIPFNRLTIG
Put plainly: SPR (Biacore) single cycle, steady state affinity; IgG from HEK supernatant captured, γ377-395 peptide analyte.
B1: binding was put at a Kd of 72 µM and the “Relative KD” value amounted to 1.53 fold against VH4/VK2.
The corresponding values for B2 are 44 µM and 0.56 fold against VH5/VK2.
In the same order, the values of B3 are 66 µM and 1.41 fold against VH4/VK2.
The corresponding values for B4 are 22 µM and 0.59 fold against VH4/VK2.
For the molecule B5, the affinity, expressed as Kd, was 39 µM and the “Relative KD” value is 0.5 fold against VH5/VK2.
Regarding B6, the Kd turned out to be 140 µM and the “Relative KD” value was determined as 1.77 fold against VH5/VK2.
The corresponding values for B7 are 49 µM and 1.05 fold against VH4/VK2.
The corresponding values for B8 are 110 µM and 1.33 fold against VH5/VK2.
On to B9, for which the dissociation constant (Kd) worked out at 93 µM and the “Relative KD” value is 1.98 fold against VH4/VK2.
With B10, the Kd turned out to be 33 µM and the “Relative KD” value was 0.7 fold against VH4/VK2.
Regarding B11, the Kd was 110 µM and the “Relative KD” value was 1.44 fold against VH5/VK2.

A further test concerns the target T1, P2 peptide comprising SEQ ID NO: 31 …. Put plainly: SPR (Biacore) single cycle, steady state fit; IgG from HEK supernatant captured, P2 peptide analyte. As for the experimental part:
FIG. 18 illustrates the procedure used for the single cycle kinetics analysis. The Biacore T200 […] instrument was used for single cycle kinetics analysis with the control software v2.0.1, and evaluation software V3.0. The anti-human capture chip was used with a running buffer consisting of HBS-P+ buffer (pH 7.4) containing 0.1% BSA at 25° C. a flow rate of 30 μl/min. Neat HEK supernatants were used as ligand and loaded to ˜1674 RU at 10 μl/min. P2 peptide comprising SEQ ID NO: 31 (CPC Scientific 920712, Lot #CS-02-00350) was the analyte for the analysis. […] Regeneration was performed with MgCl₂. Antibodies were diluted in running buffer to a final concentration of 20 μg/ml, based on concentrations assessed by Octet titre. At the start of each cycle, antibodies were loaded onto Fc2, Fc3 and Fc4 of the anti-human capture chip (GE Healthcare, Little Chalfont, UK). IgGs were captured at a flow rate of 10 μl/min to give an immobilization level (RL) of ˜ 1674 RU, the theoretical value to obtain an RMax of ˜50 RU. The surface was then allowed to stabilize. Single cycle kinetic data was obtained with P2 peptide as the analyte at a flow rate of 30 μl/min to minimize any potential mass transport limitations. […] The signal from the reference channel Fc1 (no antibody) was subtracted from that of Fc2, Fc3 and Fc4 to correct for differences in non-specific binding to a reference surface. […] The association phase for the five injections of increasing concentrations of P2 peptide was monitored for 20 seconds each time and a single dissociation phase was measured for 25 seconds following the last injection analyte. Regeneration of the anti-human capture surface was conducted using one injection of 3.8 M magnesium chloride.
On the technique in general: In SPR one partner is held on a chip, and binding of the other changes the refractive index at the surface.
Turning to B12, the Kd worked out at 200 µM and the “Relative KD” value came to 2.25 fold against VH0/VK0.
Take B13: the affinity, expressed as Kd, was 176 µM and the “Relative KD” value is 1.98 fold against VH0/VK0.
The corresponding values for B14 are 96.4 µM and 1.09 fold against VH0/VK0.
For B15, binding was put at a Kd of 148 µM and the “Relative KD” value was 1.67 fold against VH0/VK0.
In turn, B16 gave a Kd of 104 µM.
As to B17, the Kd is 277 µM and the “Relative KD” value was 3.12 fold against VH0/VK0.
Take B18: the Kd came out at 157 µM and the “Relative KD” value worked out at 1.77 fold against VH0/VK0.
In the same order, the values of B19 are 279 µM and 3.15 fold against VH0/VK0.
In the same order, the values of B20 are 174 µM and 1.96 fold against VH0/VK0.
Take B21: the affinity, expressed as Kd, was 173 µM and the “Relative KD” value was determined as 1.95 fold against VH0/VK0.
The corresponding values for B22 are 192 µM and 2.16 fold against VH0/VK0.

As a reminder, the EC50 is the concentration needed to bring the measured effect to its halfway point. Low values mean higher potency in that assay, high ones lower potency in that assay. Broadly, the Kd is the equilibrium constant for the complex coming apart. The low end stands for higher affinity, the high end for lower affinity.
